Data reported in patent publication US20230235011A1.

Key:
VEGF165 = VEGF165 (UniProt P15692); experiment: SPR (Biacore T100, 25 C); binder captured on anti-human IgG CM5 chip, VEGF165 as analyte
[1] = target: recombinant human CD28 (human) (UniProt P10747); experiment: ELISA; CD28 coated at 100 ng/ml, fusion protein titrated, anti-human IgG Fc-HRP

Sequence of VEGF165 (P15692 other isoform, or with tags, fused parts or gaps limits assumed): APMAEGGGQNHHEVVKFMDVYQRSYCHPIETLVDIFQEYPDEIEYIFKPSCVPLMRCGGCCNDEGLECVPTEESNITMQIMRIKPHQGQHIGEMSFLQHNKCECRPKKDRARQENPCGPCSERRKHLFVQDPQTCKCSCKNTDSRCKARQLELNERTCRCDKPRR
Sequence of control protein 301-8 (aflibercept) (Fc fusion) (chain): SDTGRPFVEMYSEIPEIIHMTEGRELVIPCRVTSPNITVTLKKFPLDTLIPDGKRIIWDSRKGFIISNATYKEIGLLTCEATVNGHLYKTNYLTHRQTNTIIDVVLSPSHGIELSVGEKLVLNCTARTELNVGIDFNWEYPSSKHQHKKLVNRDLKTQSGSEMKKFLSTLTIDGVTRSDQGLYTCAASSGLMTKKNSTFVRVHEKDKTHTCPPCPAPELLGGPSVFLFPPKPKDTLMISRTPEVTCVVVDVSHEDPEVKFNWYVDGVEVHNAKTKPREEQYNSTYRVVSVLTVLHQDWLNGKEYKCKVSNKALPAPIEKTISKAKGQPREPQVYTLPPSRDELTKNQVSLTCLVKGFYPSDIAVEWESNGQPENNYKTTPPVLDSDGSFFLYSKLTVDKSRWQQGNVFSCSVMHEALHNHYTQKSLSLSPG
Sequence of fusion protein BY24.23 (hCD80-Fc, IgG4) (Fc fusion) (chain): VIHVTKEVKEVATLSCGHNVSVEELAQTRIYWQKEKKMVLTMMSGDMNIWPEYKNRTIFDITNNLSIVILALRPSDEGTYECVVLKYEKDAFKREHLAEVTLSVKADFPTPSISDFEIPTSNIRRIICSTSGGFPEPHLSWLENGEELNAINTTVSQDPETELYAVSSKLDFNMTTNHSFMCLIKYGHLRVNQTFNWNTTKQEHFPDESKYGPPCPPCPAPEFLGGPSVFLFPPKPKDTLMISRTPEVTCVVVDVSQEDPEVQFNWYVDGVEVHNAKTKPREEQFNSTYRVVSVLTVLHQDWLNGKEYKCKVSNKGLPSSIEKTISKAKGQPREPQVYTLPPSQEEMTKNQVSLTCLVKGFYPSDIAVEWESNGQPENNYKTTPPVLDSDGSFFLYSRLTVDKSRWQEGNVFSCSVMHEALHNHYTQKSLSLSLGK
Sequence of fusion protein BY24.30 (Fc-hCD80, IgG4) (Fc fusion) (chain): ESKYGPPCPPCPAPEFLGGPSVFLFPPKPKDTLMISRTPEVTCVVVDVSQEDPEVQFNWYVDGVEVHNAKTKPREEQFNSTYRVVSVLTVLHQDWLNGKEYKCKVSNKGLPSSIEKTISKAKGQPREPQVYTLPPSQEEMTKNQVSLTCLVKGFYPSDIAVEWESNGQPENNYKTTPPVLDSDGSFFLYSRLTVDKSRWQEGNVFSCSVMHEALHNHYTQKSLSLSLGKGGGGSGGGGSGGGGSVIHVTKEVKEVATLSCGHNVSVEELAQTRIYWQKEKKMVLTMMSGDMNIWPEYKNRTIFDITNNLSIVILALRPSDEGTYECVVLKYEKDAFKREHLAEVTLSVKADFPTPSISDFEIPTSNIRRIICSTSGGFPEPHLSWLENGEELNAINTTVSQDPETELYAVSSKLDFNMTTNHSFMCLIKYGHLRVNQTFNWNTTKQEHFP

Row | Kd (VEGF165) | koff (VEGF165) | kon (VEGF165) | EC50 [1] | Substance
1 | 7.35 pM | 4.33e-05 s⁻¹ | 5.89e+06 M⁻¹ s⁻¹ | – | control protein 301-8 (aflibercept) (Fc fusion)
2 | – | – | – | 6.2 µg/mL | fusion protein BY24.23 (hCD80-Fc, IgG4) (Fc fusion)
3 | – | – | – | 0.97 µg/mL | fusion protein BY24.30 (Fc-hCD80, IgG4) (Fc fusion)
